Assay results reported in patent publication US20190086422A1.

How the values were obtained:
[1] = target: Tau protein from human CSF (human) (UniProt P10636); experiment: IP from human CSF, trypsin digest, MS; Tau peptide 396-406 (SEQ ID NO 86) quantified
[2] = target: Tau protein from human CSF (human) (UniProt P10636); experiment: IP from human CSF, trypsin digest, MS; Tau peptide 282-290 (SEQ ID NO 82) quantified
[3] = target: Tau protein from human CSF (human) (UniProt P10636); experiment: IP from human CSF, trypsin digest, MS; Tau peptide 175-180 (SEQ ID NO 75) quantified
[4] = target: Tau protein from human CSF (human) (UniProt P10636); experiment: IP from human CSF, trypsin digest, MS; Tau peptide 151-155 (SEQ ID NO 74) quantified
[5] = target: Tau protein from human CSF (human) (UniProt P10636); experiment: IP from human CSF, trypsin digest, MS; Tau peptide 260-267 (SEQ ID NO 80) quantified
[6] = target: Tau protein from human CSF (human) (UniProt P10636); experiment: IP from human CSF, trypsin digest, MS; Tau peptide 6-23 (SEQ ID NO 69) quantified
[7] = target: Tau protein from human CSF (human) (UniProt P10636); experiment: IP from human CSF, trypsin digest, MS; Tau peptide 181-190 (SEQ ID NO 76) quantified
[8] = target: Tau protein from human CSF (human) (UniProt P10636); experiment: IP from human CSF, trypsin digest, MS; Tau peptide 212-224 (SEQ ID NO 79) quantified
[9] = target: Tau protein from human CSF (human) (UniProt P10636); experiment: IP from human CSF, trypsin digest, MS; Tau peptide 212-221 (SEQ ID NO 78) quantified
[10] = target: Tau protein from human CSF (human) (UniProt P10636); experiment: IP from human CSF, trypsin digest, MS; Tau peptide 275-280 (SEQ ID NO 81) quantified
[11] = target: Tau protein from human CSF (human) (UniProt P10636); experiment: IP from human CSF, trypsin digest, MS; Tau peptide 68-87 (SEQ ID NO 72) quantified
[12] = target: Tau protein from human CSF (human) (UniProt P10636); experiment: IP from human CSF, trypsin digest, MS; Tau peptide 386-395 (SEQ ID NO 85) quantified
[13] = target: Tau protein from human CSF (human) (UniProt P10636); experiment: IP from human CSF, trypsin digest, MS; Tau peptide 24-44 (SEQ ID NO 70) quantified
[14] = target: Tau protein from human CSF (human) (UniProt P10636); experiment: IP from human CSF, trypsin digest, MS; Tau peptide 88-126 (SEQ ID NO 73) quantified
[15] = target: Tau protein from human CSF (human) (UniProt P10636); experiment: IP from human CSF, trypsin digest, MS; Tau peptide 45-67 (SEQ ID NO 71) quantified
[16] = target: Tau protein from human CSF (human) (UniProt P10636); experiment: IP from human CSF, trypsin digest, MS; Tau peptide 354-369 (SEQ ID NO 84) quantified
[17] = target: Tau protein from human CSF (human) (UniProt P10636); experiment: IP from human CSF, trypsin digest, MS; Tau peptide 299-316 as printed (SEQ ID NO 83) quantified
[18] = target: Tau protein from human CSF (human) (UniProt P10636); experiment: IP from human CSF, trypsin digest, MS; Tau peptide 195-209 (SEQ ID NO 77) quantified

Chain of UniProt P10636 (P10636 other isoform, or with tags, fused parts or gaps limits assumed): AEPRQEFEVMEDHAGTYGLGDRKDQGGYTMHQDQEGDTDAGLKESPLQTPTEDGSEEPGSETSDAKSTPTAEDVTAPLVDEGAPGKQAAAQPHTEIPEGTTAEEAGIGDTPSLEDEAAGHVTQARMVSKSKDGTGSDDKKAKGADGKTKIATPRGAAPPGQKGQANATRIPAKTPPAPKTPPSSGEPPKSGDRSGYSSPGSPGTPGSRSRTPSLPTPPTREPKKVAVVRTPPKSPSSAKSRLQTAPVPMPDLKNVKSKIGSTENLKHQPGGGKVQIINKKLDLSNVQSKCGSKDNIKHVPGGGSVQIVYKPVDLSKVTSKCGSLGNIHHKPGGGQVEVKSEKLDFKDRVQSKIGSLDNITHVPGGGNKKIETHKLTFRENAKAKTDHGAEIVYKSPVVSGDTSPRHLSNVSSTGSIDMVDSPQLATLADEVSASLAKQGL

Substance	Peptide Intensity (fraction of the highest abundance among the three IP antibodies) [1]	Peptide Intensity (fraction of the highest abundance among the three IP antibodies) [2]	Peptide Intensity (fraction of the highest abundance among the three IP antibodies) [3]	Peptide Intensity (fraction of the highest abundance among the three IP antibodies) [4]	Peptide Intensity (fraction of the highest abundance among the three IP antibodies) [5]	Peptide Intensity (fraction of the highest abundance among the three IP antibodies) [6]	Peptide Intensity (fraction of the highest abundance among the three IP antibodies) [7]	Peptide Intensity (fraction of the highest abundance among the three IP antibodies) [8]	Peptide Intensity (fraction of the highest abundance among the three IP antibodies) [9]	Peptide Intensity (fraction of the highest abundance among the three IP antibodies) [10]	Peptide Intensity (fraction of the highest abundance among the three IP antibodies) [11]	Peptide Intensity (fraction of the highest abundance among the three IP antibodies) [12]	Peptide Intensity (fraction of the highest abundance among the three IP antibodies) [13]	Peptide Intensity (fraction of the highest abundance among the three IP antibodies) [14]	Peptide Intensity (fraction of the highest abundance among the three IP antibodies) [15]	Peptide Intensity (fraction of the highest abundance among the three IP antibodies) [16]	Peptide Intensity (fraction of the highest abundance among the three IP antibodies) [17]	Peptide Intensity (fraction of the highest abundance among the three IP antibodies) [18]
HJ8.7 (antibody)	0.39	0.04	1	1	1	0.68	1	0.94	0.86	1	1	1	0.84	1	1	1	1	0.8
Tau12 (antibody)	0.42	1	0.99	0.87	0.86	1	0.46	1	1	0.31	0.47	0.68	0.15	0.59	0.92	0.86	0.82	1
